The assay addresses Small BiT (SB)-eIF4E, full-length. Description: cell-based or functional assay.
Small BiT (SB)-eIF4E, full-length, sequence (chain, as listed by the source limits assumed): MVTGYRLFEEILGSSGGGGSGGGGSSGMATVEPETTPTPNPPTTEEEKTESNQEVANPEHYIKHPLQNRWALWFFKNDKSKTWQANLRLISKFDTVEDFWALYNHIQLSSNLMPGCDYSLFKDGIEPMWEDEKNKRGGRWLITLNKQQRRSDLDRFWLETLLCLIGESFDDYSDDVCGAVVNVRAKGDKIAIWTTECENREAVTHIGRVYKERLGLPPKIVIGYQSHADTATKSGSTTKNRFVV
LB-4E-BP1 - residues 29 to end, sequence (Q13541 29-118): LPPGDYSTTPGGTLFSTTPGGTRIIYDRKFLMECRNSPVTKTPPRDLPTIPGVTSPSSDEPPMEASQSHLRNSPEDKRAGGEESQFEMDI
Regarding “Full-length 4E-BP1 with C-terminal LB (from UniProt Q13541 2-118)”, the fold-change of split-luciferase luminescence, rapamycin (50 nM, 1 h) over vehicle; HEK293 cells stood at 1.18 fold. For the substance “LB-4E-BP1 - residues 29 to end (from UniProt Q13541 29-118)”, the fold-change of split-luciferase luminescence, rapamycin (50 nM, 1 h) over vehicle; HEK293 cells turned out to be 0.89 fold. Turning to “4E-BP1 with C-terminal LB at residue 95 (from UniProt Q13541 1-95)”, the fold-change of split-luciferase luminescence, rapamycin (50 nM, 1 h) over vehicle; HEK293 cells was 0.98 fold. Next, “4E-BP1 with C-terminal LB at residue 85 (from UniProt Q13541 1-85)”: 0.89 fold.

The values above are taken from US20180164286A1.
